Measurements as given in the nanobody polyreactivity screen of Harvey et al. (2022).

Test: yeast display, Sf9 membrane polyspecificity reagent, FACS + sequencing; frameworks hold sequencing errors
In short: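 Nanobodies from a synthetic yeast display library (Saccharomyces cerevisiae BJ5465), induced 36–48 hours with galactose, were stained 1 hour at 4 °C with 10% biotinylated, detergent-solubilized Sf9 membrane reagent, enriched on streptavidin microbeads, then FACS-sorted. Anti-HA (expression) and streptavidin (reagent binding) fluorescence set low and high (top ~1%) gates. Polyreactivity labels come from the gate of origin. Genes were colony-PCR amplified, MiSeq 2 × 250 sequenced and filtered by CDR length.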

Sequence | polyreactivity (PSR sort gate)
QVQLVESGGGLVQAGGSLRLSCAASGRTFRVYAMGWYRQAPGKERELVAAIRSGGSTNYADSVKGRFTISRDNAKNTVYLQMNSLKPEDTAVYYCAAVYRNNRQGYQFDYWGQGTQVTVSS | high polyreactivity
QVQLVESGGGLVQAGGSLRLSCAASGRTFRVYAMGWYRQAPGKERELVAAISRSTGDTYYADSVKGRFTISRDNAKNSVYLLMNRLKPEDTAVYYCAADVPGGEGDYAYEYWGQGTQVTVSS | low polyreactivity
QVQLVESGGGLVQAGGSLRLSCAASGRTFRVYAMGWYRQAPGKERELVAAISWSGGTTYYADSVKGRFTISRDNAKNTVYLQMNSLKPEDSAVYYCARRSRGSSYNYWGQGTQVTVSS | high polyreactivity
QVQLVESGGGLVQAGGSLRLSCAASGRTFRVYAMGWYRQAPGKERELVAAITFNGGSTYYADSVKGRFTISRDNAKNTVYLQMNSLKPEDTAVYYCAAATRRSYDHVQMYYWGQGTQVTVSS | high polyreactivity
QVQLVESGGGLVQAGGSLRLSCAASGRTFRVYVMGWYRQAPGKERELVAAISKSGTSTYYADSVKGRFTISRDNAKNTVYLQMNSLKPEDTAVYYCAAALPGYGDYYYWGQGTQVTVSS | high polyreactivity
QVQLVESGGGLVQAGGSLRLSCAASGRTFRWNAIGWYRQAPGKERELVASISSGGRTNYADSVKVRFTISRDNEKNTVYLQMNSLKPEDTAVYYCAKRVSWPQLYDYWGQGTQVTVSS | high polyreactivity
QVQLVESGGGLVQAGGSLRLSCAASGRTFRWYAMGWYIQAPGKERELVAAITSGGSTYYADSVKGRFTISRDNAKNTVYLQMNSLKPEDTAVYYCNAVSTSGAFDYWGQGTQVTVSS | high polyreactivity
QVQLVESGGGLVQAGGSLRLSCAASGRTFRWYAMGWYRQAPGKERELLASITWSGGSTYYADSVKGRFTISRDNAKNTVYLQMNSLKPEDTAVYYCAAVGRQSNYYVDYDYWGQGTQVTVSS | high polyreactivity
QVQLVESGGGLVQAGGSLRLSCAASGRTFRWYAMGWYRQAPGKERELVAAITGGGRTYYADSVKGSFTISRDYAKNTVYLQMNSLKPEDTAVYYCNKYPSSGNYINAYDYWGQGTQVTVSS | high polyreactivity
QVQLVESGGGLVQAGGSLRLSCAASGRTFRWYAMGWYRQAPGKERELVARITYSGGSTYYADSVKGRFTISRDNAKNTVYLQMNSLKPEDTAVYYCAAKRYTGSSSIYYYWGQGTQVTVSS | high polyreactivity
QVQLVESGGGLVQAGGSLRLSCAASGRTFRWYAMGWYRQAPGKERELVATITSGGSTNYADSVKGRFTISRDNAKNTVYLQMNSLKPEDTAVYYCAAWSYAYYYRLRYVSHDYWGQGTQVTVSS | high polyreactivity
QVQLVESGGGLVQAGGSLRLSCAASGRTFRWYGMGWYRQAPGKEREFVAAISFRGGTTYYADSVKGRFTISRDNAKNTVYLQMNSLKPEDTAVYYCAARYGYYTSDYKYYYWGQGTQVTVSS | high polyreactivity
QVQLVESGGGLVQAGGSLRLSCAASGRTFRWYPMGWYRHAPGKEREFVARITWSGGRTYYADSVKGRFTISRDNAKNTVYLQMNSLKPEDTADYYCAAYFVGRYRLEYWGQGTQVTVSS | high polyreactivity
QVQLVESGGGLVQAGGSLRLSCAASGRTFRYHAMGWYRQAPGKERELVAGISWSGTSTYYADSVKGRFTISRDNAKNTVYLQMNSLKPEDTAVYYCNAVFRYRYDYWGQGTQVTVSS | high polyreactivity
QVQLVESGGGLVQAGGSLRLSCAASGRTFRYNALGWYRQAPGTERELVAAISRGTITNYAASVKGRFTISRDNAKNPVYFQLTSLKPEDTAVYYCNAGWGVVIRRYPTYHYWGQGTQVTVSS | high polyreactivity
QVQLVESGGGLVQAGGSLRLSCAASGRTFRYNAMGWYRQAPGKERELVAAISSGDRTNYADSVKGRFTISRDNAKNTVYLQMNSLKPEDTAVYYCAAPTDSYYEFDYWGQGTQVTVSS | low polyreactivity
QVQLVESGGGLVQAGGSLRLSCAASGRTFRYNAMGWYRQAPGKERELVAAITQSGGSTYYADSVKGRFTISRDNAKNTVYLQMNSLKPEDTAVYYCAKVRERINYDYWGQGTQVTVSS | low polyreactivity
QVQLVESGGGLVQAGGSLRLSCAASGRTFRYNAMGWYRQAPGKERELVASITSGGSTNYADSVKGRFTISRDNAKNTVYLQMNSLKPEDTAVYYCAADERRPYWLHSIGSGRPFDYWGQGTQVTVSS | low polyreactivity
QVQLVESGGGLVQAGGSLRLSCAASGRTFRYNRMGWYRQAPGKERELVAAITGGGSTYYADSVKGRFTISRDNAKNTVYLQMNSLKPEDTPVYYCAKRRWYRYDYWGQGTQVTVSS | high polyreactivity
QVQLVESGGGLVQAGGSLRLSCAASGRTFRYNTMGWYRQAPGKERELVARINWSGGSTYYADSVKGRFTISRDNAKNTVYLQMNSLKPEDTAVYYCAAVPILVYRWFQSYTGDYDYWGQGTQVTVSS | low polyreactivity
QVQLVESGGGLVQAGGSLRLSCAASGRTFRYNTMGWYRQAPGTERELVATITGSGGSTYYADSVKGRFTISRDNAKNTVYLQMNSLKPEDTAVYYCNALFRLRAYAEMDYWGQGTQVTVSS | high polyreactivity
QVQLVESGGGLVQAGGSLRLSCAASGRTFRYYAMGWYRPAPGKERELVATITGSGGSTYYADSVKGRFTISRDNAKNTVYLQMNSLKPEDTAVYDCNARKVRYPYRWYVYWGQGTQVTVSS | high polyreactivity

Sequence | polyreactivity (PSR sort gate)
QVQLVESGGGLVQAGGSLRLSCAASGRTFRYYAMGWYRQAPAKERELVAAINWNGGRTYYADSVKGRFTISRDNAKNTVYLQMNSLKPEDTAVYYCAAYHYRSPVTGDYWGQGTQVTVSS | high polyreactivity
QVQLVESGGGLVQAGGSLRLSCAASGRTFRYYAMGWYRQAPGKERELVAAISWNGANTYYADSVKGRFTISRDNAKNTVYLQMNSLKPEDTAVYYCAATYYRWKGYDYWGQGTQVTVSS | high polyreactivity
QVQLVESGGGLVQAGGSLRLSCAASGRTFRYYAMGWYRQAPGKERELVAAITSNGGSTYYADSVKGRFTISRDNAKNTVYLQMNSLKPEDTAVYYCNALASRGKYGFDYWGQGTQVTVSS | high polyreactivity
QVQLVESGGGLVQAGGSLRLSCAASGRTFRYYAMGWYRQAPGKERELVAAITSSGDSTYYADSVKGRFTISRDNAKNTVYLQMNSLKPEDTAVYYCAAGQPLFYDAEYGYWGQGTQVNVSS | low polyreactivity
QVQLVESGGGLVQAGGSLRLSCAASGRTFRYYAMGWYRQAPGKERELVAAITSVGGTYYADSVKGRFTISRDNAKNTVYLQMNSLKPEDTAVYYCAVTSYKYRKYDYWGQGTQVTVSS | high polyreactivity
QVQLVESGGGLVQAGGSLRLSCAASGRTFRYYAMGWYRQAPGKESEFVARISSSGSSTYSADSVKGRFTISRDNAKNTVYLQMNSLKPEDTAVYYCAKTVLPYGGSNGLKWYYYWGQGTQVTVSS | high polyreactivity
QVQLVESGGGLVQAGGSLRLSCAASGRTFRYYAMGWYRQAPGTERELVATITGSGGSTYYADSVKGRFTISRDNAKNSVYLQMNSLKPEDTAVYYCNARKVRYPYRWYDYWGQGTQVTVSS | high polyreactivity
QVQLVESGGGLVQAGGSLRLSCAASGRTFRYYAMGWYRQPPGKERELVATITGSGGSTYYADSVKGRFTISRDNAKNTVYVQMNSLKPEDTAVYDCNARKVRYPYRWYDYWGQGTQVTVSS | high polyreactivity
QVQLVESGGGLVQAGGSLRLSCAASGRTFRYYAMGWYRQTPGKERELVATISKSGGSTYYADSVKGRFTISRDNAKNTVYLQMNSLKPEDTAVYYCATSKSYSAFDYWGQGTQVTVSS | high polyreactivity
QVQLVESGGGLVQAGGSLRLSCAASGRTFRYYVMGWYRQAPGKERELVAAITYSGGGTYYADSVKGRFTISRDNAKNTVYLQMNSLKPEDTAVYYCAAARTYQYDKYYYWGQGTQVTVSS | high polyreactivity
QVQLVESGGGLVQAGGSLRLSCAASGRTFSAYAMGWYRQAPGKERELVAAISRSGGRTYYADSVKGRFTISRDNAKNTVYLEMNSLKPEDTAVYYCNARNLRDNQCTYDYWGQGTQVTVSS | high polyreactivity
QVQLVESGGGLVQAGGSLRLSCAASGRTFSAYAMGWYRQAPGKERELVAAITLSVGSTYYADSVKGRFTISRDNAKNTVYLQMNSLKPEDTAVYYCNKYKKGEGGITIVRFDYWGQGTQVTVSS | low polyreactivity
QVQLVESGGGLVQAGGSLRLSCAASGRTFSAYAMGWYRQAPGKERELVARITSVDSTNYADSVKGRFTISRDNAKNTVYLQMNSLKPEDTAVYYCNATFGYPCVDYDDYWGQGTQGTVSS | low polyreactivity
QVQLVESGGGLVQAGGSLRLSCAASGRTFSAYARGWYRQAPGKERELVAAISRRGGSTYYADSVKGRFTISRDNAKNTVYLQMNSLKPEDTAVYYCAADVYKQYGYYYWGQGTLVTVSS | high polyreactivity
QVQLVESGGGLVQAGGSLRLSCAASGRTFSAYTMGWYRQAPGKERELVAAISRRGGSTYYADSVKGRFTISRDNAKNTVYLQMNSLKPEDTAVYYCATKSQYDYDYWGHGTQVTVSS | high polyreactivity
QVQLVESGGGLVQAGGSLRLSCAASGRTFSEYAMGWYRQAPGKERELVAAITRSGGGTYYADSVKGRFTISRDNAKNTVYLQMNSLKPEDTAVYYCATQSFSPYDYTDEYWGQGTQVTVSS | high polyreactivity
QVQLVESGGGLVQAGGSLRLSCAASGRTFSFYAMGWYRPAPGKERELVAAISSGTRTYYADSVKGRFTISRDNAKNTFYLQMNSLKPEDTAVYYCAARPKWTASWYYYWGQGTQVTVSS | high polyreactivity
QVQLVESGGGLVQAGGSLRLSCAASGRTFSGYAMGWYRQAPGKEREFVAVITYSGGSTYYADSVKGRFTMSRVNAKNTVYLQMNSLKPEDTAVYYCNADYVIFYQLVDFDYWGQGTQVTVSS | low polyreactivity
QVQLVESGGGLVQAGGSLRLSCAASGRTFSINAMGWYSQAPGKERELVAAISYTGGSTYYADSVKGRFTISRDNAKNTVYLQMNSLKPEDTAVYYCAASSSRTYYGRYYYWGQGTQVTVSS | high polyreactivity
QVQLVESGGGLVQAGGSLRLSCAASGRTFSIYAMGWYRQAPGKERELVAAISNGGRTKYADSVKGRFTISRDNAKNTVYLQMNSLKPEDTAVYYCAASRPRPPSSRRMDYWGQGTQVTVSS | high polyreactivity
QVQLVESGGGLVQAGGSLRLSCAASGRTFSIYTMGWYRQAPGKERELVASIRRSSGSTYYADSVKGRFTISRDNAKNTVYLQMNSLKPEDTAVYYCAADRIRLDSRKFDYWGQGTQVTVSS | low polyreactivity
